Assay results published in paper doi:10.1101/2021.11.29.470412.

Biological target: Vrl1-Envy (S. cerevisiae)
Experiment: co-IP

B1: Vin1-3HA (natural protein)
chain: MENDKASHASPSIGVNEFVVQGEISIDDSERSVKSVSVSISDDEDSKTDVQDNMATPSTRSKFQTDLAIDNRLLEKDPKYKKLFTEKRRRRRPESCINLMTKGKGTGQKDNINDQIFSLRILPGSDLNSLKDSLWIIKISTQPDVEKTIARAFSDFYWLYHQLQNNHWGKTIPPPTRSNILVEKDEFAINHLFMIRNNEKYDPIFNFKPEYIISLQLMAMIKHIFNDKVLRLDSNFIDFISWDDDLPESLQIVVDDSTFTGDKILMTSSQFRELKEFHKQSKKVESITNSHASLIPVTELTEIYISPTKLFSRKDYQRLFQPQSTDNTFNNNDPLIQEWIPKSKTLFTSLSFGSSAPTYQEASTEIQACHDWVSISKEQWKQLLYHVLQYIVDEAVKVNSVINEFTECLKQISLDEVIRANSELFLKFSKLNESFLKKFKGASRQDILKLIILFDENVRFCESFESILNQRLKLGKILSIIEVDLDKKKNFLDKLSPGNNNSNNEDLKIRTAEDEYRIVLKRYNRVKQSWEKIMEDILNERKEFEKREAAEVNSCLKSIRDLNMDEKKHYLQLWQDFVPDEHISQ
  recovery of Vin1 in the co-IP: 64%
